Data: patent US20150344570A1 (published 2015)

T1: FcγRIIa H (FcγRIIa type H, His at position 131), extracellular domain with C-terminal His tag (human, UniProt P12318 34-217)
T1 construct: extracellular domain; also called FcgRIIa H; 2aH
T1 sequence (looked up): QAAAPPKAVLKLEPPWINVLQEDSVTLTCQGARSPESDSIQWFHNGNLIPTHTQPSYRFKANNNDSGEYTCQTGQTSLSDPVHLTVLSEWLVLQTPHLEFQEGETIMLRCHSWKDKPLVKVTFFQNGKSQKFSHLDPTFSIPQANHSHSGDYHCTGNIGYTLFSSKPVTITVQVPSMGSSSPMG


Target: T1, FcγRIIa H (FcγRIIa type H, His at …)
Assay: SPR Biacore, relative binding, GpH7-A5/GpH7-B3/GpL16-k0 (HeCon Ab)=100
Procedure: Analysis of interaction between objective antibody and the FcγR was carried out using Biacore T100 (GE Healthcare). HBS-EP+ (GE Healthcare) was used as the running buffer, and the measurement temperature was set to 25° C. Chips produced by immobilizing the antigen peptide by the amine coupling method to a Series S Sencor Chip CM5 (GE Healthcare), or alternatively, chips produced by allowing preliminarily biotinylated antigen peptides to interact with and immobilize onto a Series S Sensor Chip SA (certified) (GE Healthcare) were used. Antibodies of interest were captured onto an antigen peptide-immobilized chip, and allowed to interact to each FcγR diluted with running buffer. To regenerate and repeatedly use the chip, the antibodies captured on the chip were washed off by reacting 10 mM glycine-HCl, pH 1.5.

Binder	He/Con_2aH
GpH7-A5/GpH7-B3 variant K334_04F/GpL16-k0 (antibody, human IgG1, kappa, one H chain mutated; also called He Ab) heavy 1: not shown heavy 2: not shown light: DIVMTQSPLSLPVTPGEPASISCQASESLVHSNRNTYLHWYLQKPGQSPQLLIYKVSNRFSGVPDRFSGSGSGTDFTLKISRVEAEDVGVYYCSQNTHVPPTFGQGTKVEIERTVAAPSVFIFPPSDEQLKSGTASVVCLLNNFYPREAKVQWKVDNALQSGNSQESVTEQDSKDSTYSLSSTLTLSKADYEKHKVYACEVTHQGLSSPVTKSFNRGEC	106 % of control
GpH7-A5/GpH7-B3 variant P271_01G/GpL16-k0 (antibody, human IgG1, kappa, one H chain mutated; also called He Ab) heavy 1: not shown heavy 2: not shown light: DIVMTQSPLSLPVTPGEPASISCQASESLVHSNRNTYLHWYLQKPGQSPQLLIYKVSNRFSGVPDRFSGSGSGTDFTLKISRVEAEDVGVYYCSQNTHVPPTFGQGTKVEIERTVAAPSVFIFPPSDEQLKSGTASVVCLLNNFYPREAKVQWKVDNALQSGNSQESVTEQDSKDSTYSLSSTLTLSKADYEKHKVYACEVTHQGLSSPVTKSFNRGEC	107 % of control
GpH7-A5/GpH7-B3 variant Q295_05P/GpL16-k0 (antibody, human IgG1, kappa, one H chain mutated; also called He Ab) heavy 1: not shown heavy 2: not shown light: DIVMTQSPLSLPVTPGEPASISCQASESLVHSNRNTYLHWYLQKPGQSPQLLIYKVSNRFSGVPDRFSGSGSGTDFTLKISRVEAEDVGVYYCSQNTHVPPTFGQGTKVEIERTVAAPSVFIFPPSDEQLKSGTASVVCLLNNFYPREAKVQWKVDNALQSGNSQESVTEQDSKDSTYSLSSTLTLSKADYEKHKVYACEVTHQGLSSPVTKSFNRGEC	103 % of control
GpH7-A5/GpH7-B3 variant Q295_07I/GpL16-k0 (antibody, human IgG1, kappa, one H chain mutated; also called He Ab) heavy 1: not shown heavy 2: not shown light: DIVMTQSPLSLPVTPGEPASISCQASESLVHSNRNTYLHWYLQKPGQSPQLLIYKVSNRFSGVPDRFSGSGSGTDFTLKISRVEAEDVGVYYCSQNTHVPPTFGQGTKVEIERTVAAPSVFIFPPSDEQLKSGTASVVCLLNNFYPREAKVQWKVDNALQSGNSQESVTEQDSKDSTYSLSSTLTLSKADYEKHKVYACEVTHQGLSSPVTKSFNRGEC	102 % of control
GpH7-A5/GpH7-B3 variant L328_02A/GpL16-k0 (antibody, human IgG1, kappa, one H chain mutated; also called He Ab) heavy 1: not shown heavy 2: not shown light: DIVMTQSPLSLPVTPGEPASISCQASESLVHSNRNTYLHWYLQKPGQSPQLLIYKVSNRFSGVPDRFSGSGSGTDFTLKISRVEAEDVGVYYCSQNTHVPPTFGQGTKVEIERTVAAPSVFIFPPSDEQLKSGTASVVCLLNNFYPREAKVQWKVDNALQSGNSQESVTEQDSKDSTYSLSSTLTLSKADYEKHKVYACEVTHQGLSSPVTKSFNRGEC	130 % of control
GpH7-A5/GpH7-B3 variant S324_10E/GpL16-k0 (antibody, human IgG1, kappa, one H chain mutated; also called He Ab) heavy 1: not shown heavy 2: not shown light: DIVMTQSPLSLPVTPGEPASISCQASESLVHSNRNTYLHWYLQKPGQSPQLLIYKVSNRFSGVPDRFSGSGSGTDFTLKISRVEAEDVGVYYCSQNTHVPPTFGQGTKVEIERTVAAPSVFIFPPSDEQLKSGTASVVCLLNNFYPREAKVQWKVDNALQSGNSQESVTEQDSKDSTYSLSSTLTLSKADYEKHKVYACEVTHQGLSSPVTKSFNRGEC	103 % of control
GpH7-A5/GpH7-B3 variant S324_02A/GpL16-k0 (antibody, human IgG1, kappa, one H chain mutated; also called He Ab) heavy 1: not shown heavy 2: not shown light: DIVMTQSPLSLPVTPGEPASISCQASESLVHSNRNTYLHWYLQKPGQSPQLLIYKVSNRFSGVPDRFSGSGSGTDFTLKISRVEAEDVGVYYCSQNTHVPPTFGQGTKVEIERTVAAPSVFIFPPSDEQLKSGTASVVCLLNNFYPREAKVQWKVDNALQSGNSQESVTEQDSKDSTYSLSSTLTLSKADYEKHKVYACEVTHQGLSSPVTKSFNRGEC	102 % of control
GpH7-A5/GpH7-B3 variant L235_20W/GpL16-k0 (antibody, human IgG1, kappa, one H chain mutated; also called He Ab) heavy 1: not shown heavy 2: not shown light: DIVMTQSPLSLPVTPGEPASISCQASESLVHSNRNTYLHWYLQKPGQSPQLLIYKVSNRFSGVPDRFSGSGSGTDFTLKISRVEAEDVGVYYCSQNTHVPPTFGQGTKVEIERTVAAPSVFIFPPSDEQLKSGTASVVCLLNNFYPREAKVQWKVDNALQSGNSQESVTEQDSKDSTYSLSSTLTLSKADYEKHKVYACEVTHQGLSSPVTKSFNRGEC	118 % of control
GpH7-A5/GpH7-B3 variant L328_13S/GpL16-k0 (antibody, human IgG1, kappa, one H chain mutated; also called He Ab) heavy 1: not shown heavy 2: not shown light: DIVMTQSPLSLPVTPGEPASISCQASESLVHSNRNTYLHWYLQKPGQSPQLLIYKVSNRFSGVPDRFSGSGSGTDFTLKISRVEAEDVGVYYCSQNTHVPPTFGQGTKVEIERTVAAPSVFIFPPSDEQLKSGTASVVCLLNNFYPREAKVQWKVDNALQSGNSQESVTEQDSKDSTYSLSSTLTLSKADYEKHKVYACEVTHQGLSSPVTKSFNRGEC	123 % of control
GpH7-A5/GpH7-B3 variant K334_16H/GpL16-k0 (antibody, human IgG1, kappa, one H chain mutated; also called He Ab) heavy 1: not shown heavy 2: not shown light: DIVMTQSPLSLPVTPGEPASISCQASESLVHSNRNTYLHWYLQKPGQSPQLLIYKVSNRFSGVPDRFSGSGSGTDFTLKISRVEAEDVGVYYCSQNTHVPPTFGQGTKVEIERTVAAPSVFIFPPSDEQLKSGTASVVCLLNNFYPREAKVQWKVDNALQSGNSQESVTEQDSKDSTYSLSSTLTLSKADYEKHKVYACEVTHQGLSSPVTKSFNRGEC	104 % of control
GpH7-A5/GpH7-B3 variant K334_07[ (read as K334_07I)/GpL16-k0 (antibody, human IgG1, kappa, one H chain mutated; also called He Ab) heavy 1: not shown heavy 2: not shown light: DIVMTQSPLSLPVTPGEPASISCQASESLVHSNRNTYLHWYLQKPGQSPQLLIYKVSNRFSGVPDRFSGSGSGTDFTLKISRVEAEDVGVYYCSQNTHVPPTFGQGTKVEIERTVAAPSVFIFPPSDEQLKSGTASVVCLLNNFYPREAKVQWKVDNALQSGNSQESVTEQDSKDSTYSLSSTLTLSKADYEKHKVYACEVTHQGLSSPVTKSFNRGEC	110 % of control
GpH7-A5/GpH7-B3 variant K334_15Y/GpL16-k0 (antibody, human IgG1, kappa, one H chain mutated; also called He Ab) heavy 1: not shown heavy 2: not shown light: DIVMTQSPLSLPVTPGEPASISCQASESLVHSNRNTYLHWYLQKPGQSPQLLIYKVSNRFSGVPDRFSGSGSGTDFTLKISRVEAEDVGVYYCSQNTHVPPTFGQGTKVEIERTVAAPSVFIFPPSDEQLKSGTASVVCLLNNFYPREAKVQWKVDNALQSGNSQESVTEQDSKDSTYSLSSTLTLSKADYEKHKVYACEVTHQGLSSPVTKSFNRGEC	106 % of control
GpH7-A5/GpH7-B3 variant L328_06M/GpL16-k0 (antibody, human IgG1, kappa, one H chain mutated; also called He Ab) heavy 1: not shown heavy 2: not shown light: DIVMTQSPLSLPVTPGEPASISCQASESLVHSNRNTYLHWYLQKPGQSPQLLIYKVSNRFSGVPDRFSGSGSGTDFTLKISRVEAEDVGVYYCSQNTHVPPTFGQGTKVEIERTVAAPSVFIFPPSDEQLKSGTASVVCLLNNFYPREAKVQWKVDNALQSGNSQESVTEQDSKDSTYSLSSTLTLSKADYEKHKVYACEVTHQGLSSPVTKSFNRGEC	104 % of control
GpH7-A5/GpH7-B3 variant S267_02A/GpL16-k0 (antibody, human IgG1, kappa, one H chain mutated; also called He Ab) heavy 1: not shown heavy 2: not shown light: DIVMTQSPLSLPVTPGEPASISCQASESLVHSNRNTYLHWYLQKPGQSPQLLIYKVSNRFSGVPDRFSGSGSGTDFTLKISRVEAEDVGVYYCSQNTHVPPTFGQGTKVEIERTVAAPSVFIFPPSDEQLKSGTASVVCLLNNFYPREAKVQWKVDNALQSGNSQESVTEQDSKDSTYSLSSTLTLSKADYEKHKVYACEVTHQGLSSPVTKSFNRGEC	120 % of control
GpH7-A5/GpH7-B3 variant K334_08L/GpL16-k0 (antibody, human IgG1, kappa, one H chain mutated; also called He Ab) heavy 1: not shown heavy 2: not shown light: DIVMTQSPLSLPVTPGEPASISCQASESLVHSNRNTYLHWYLQKPGQSPQLLIYKVSNRFSGVPDRFSGSGSGTDFTLKISRVEAEDVGVYYCSQNTHVPPTFGQGTKVEIERTVAAPSVFIFPPSDEQLKSGTASVVCLLNNFYPREAKVQWKVDNALQSGNSQESVTEQDSKDSTYSLSSTLTLSKADYEKHKVYACEVTHQGLSSPVTKSFNRGEC	104 % of control
GpH7-A5/GpH7-B3 variant K334_14T/GpL16-k0 (antibody, human IgG1, kappa, one H chain mutated; also called He Ab) heavy 1: not shown heavy 2: not shown light: DIVMTQSPLSLPVTPGEPASISCQASESLVHSNRNTYLHWYLQKPGQSPQLLIYKVSNRFSGVPDRFSGSGSGTDFTLKISRVEAEDVGVYYCSQNTHVPPTFGQGTKVEIERTVAAPSVFIFPPSDEQLKSGTASVVCLLNNFYPREAKVQWKVDNALQSGNSQESVTEQDSKDSTYSLSSTLTLSKADYEKHKVYACEVTHQGLSSPVTKSFNRGEC	103 % of control
GpH7-A5/GpH7-B3 variant S324_06M/GpL16-k0 (antibody, human IgG1, kappa, one H chain mutated; also called He Ab) heavy 1: not shown heavy 2: not shown light: DIVMTQSPLSLPVTPGEPASISCQASESLVHSNRNTYLHWYLQKPGQSPQLLIYKVSNRFSGVPDRFSGSGSGTDFTLKISRVEAEDVGVYYCSQNTHVPPTFGQGTKVEIERTVAAPSVFIFPPSDEQLKSGTASVVCLLNNFYPREAKVQWKVDNALQSGNSQESVTEQDSKDSTYSLSSTLTLSKADYEKHKVYACEVTHQGLSSPVTKSFNRGEC	117 % of control
GpH7-A5/GpH7-B3 variant S239_09D/GpL16-k0 (antibody, human IgG1, kappa, one H chain mutated; also called He Ab) heavy 1: not shown heavy 2: not shown light: DIVMTQSPLSLPVTPGEPASISCQASESLVHSNRNTYLHWYLQKPGQSPQLLIYKVSNRFSGVPDRFSGSGSGTDFTLKISRVEAEDVGVYYCSQNTHVPPTFGQGTKVEIERTVAAPSVFIFPPSDEQLKSGTASVVCLLNNFYPREAKVQWKVDNALQSGNSQESVTEQDSKDSTYSLSSTLTLSKADYEKHKVYACEVTHQGLSSPVTKSFNRGEC	114 % of control
GpH7-A5/GpH7-B3 variant S324_20W/GpL16-k0 (antibody, human IgG1, kappa, one H chain mutated; also called He Ab) heavy 1: not shown heavy 2: not shown light: DIVMTQSPLSLPVTPGEPASISCQASESLVHSNRNTYLHWYLQKPGQSPQLLIYKVSNRFSGVPDRFSGSGSGTDFTLKISRVEAEDVGVYYCSQNTHVPPTFGQGTKVEIERTVAAPSVFIFPPSDEQLKSGTASVVCLLNNFYPREAKVQWKVDNALQSGNSQESVTEQDSKDSTYSLSSTLTLSKADYEKHKVYACEVTHQGLSSPVTKSFNRGEC	103 % of control
GpH7-A5/GpH7-B3 variant S324_09D/GpL16-k0 (antibody, human IgG1, kappa, one H chain mutated; also called He Ab) heavy 1: not shown heavy 2: not shown light: DIVMTQSPLSLPVTPGEPASISCQASESLVHSNRNTYLHWYLQKPGQSPQLLIYKVSNRFSGVPDRFSGSGSGTDFTLKISRVEAEDVGVYYCSQNTHVPPTFGQGTKVEIERTVAAPSVFIFPPSDEQLKSGTASVVCLLNNFYPREAKVQWKVDNALQSGNSQESVTEQDSKDSTYSLSSTLTLSKADYEKHKVYACEVTHQGLSSPVTKSFNRGEC	106 % of control
GpH7-A5/GpH7-B3 variant L328_14T/GpL16-k0 (antibody, human IgG1, kappa, one H chain mutated; also called He Ab) heavy 1: not shown heavy 2: not shown light: DIVMTQSPLSLPVTPGEPASISCQASESLVHSNRNTYLHWYLQKPGQSPQLLIYKVSNRFSGVPDRFSGSGSGTDFTLKISRVEAEDVGVYYCSQNTHVPPTFGQGTKVEIERTVAAPSVFIFPPSDEQLKSGTASVVCLLNNFYPREAKVQWKVDNALQSGNSQESVTEQDSKDSTYSLSSTLTLSKADYEKHKVYACEVTHQGLSSPVTKSFNRGEC	116 % of control
